Article PMC9598537

Columns and labels:
[1] = biological target: AR9 chaperonin (gp228, product of gene 228 of bacteriophage AR9 Bacillus subtilis) (bacteriophage AR9 (Bacillus subtilis phage)); assay: SAXS; gp228 at 0.5 to 7.0 mg/mL, 20 °C, P12 beamline PETRA III; oligomeric state from the excluded volume Vp
[2] = biological target: AR9 chaperonin (gp228, product of gene 228 of bacteriophage AR9 Bacillus subtilis) (bacteriophage AR9 (Bacillus subtilis phage)); assay: cryo-EM structure; purified apo gp228 in 50 mM Tris-HCl pH 7.5, 10 mM MgCl2, 100 mM KCl; single particle analysis, maps with no symmetry and with C7 symmetry; homology model flexibly fitted into the map

AR9 chaperonin (gp228, product of gene 228 of bacteriophage AR9 Bacillus subtilis) (natural protein)
stoichiometry N [1]: 7 | stoichiometry N [2]: 7
